Results on 16 molecules are retold here after US20260258115A1 (MAPP BIOPHARMACEUTICAL, published 2026).

Substitutions are numbered along the chain they refer to.

The labels stand for the following.
B1: ADI-41701 (antibody, V domains shown)
VH: QVQLVQSGAEVKKPGESLKISCQASGYSFTTYWIGWVRQTPGKGLEWMGIIYPGDSDTRYTPSFQGQVTISADKSISTAYLHWSSLKASDTAMYYCARLSGGYTFGFDYWGLGTLVTVSS
VL: NFMLTQPHSVSESPGKTVTISCTRSSGNIARYYVQWYQQRPGRAPTTVIYEDDQRPSGVPDRFSGSIDRSSNSASLTISGLKTEDEADYYCQSYDASNYVFATGTKVTVL
B2: ADI-41703 (antibody, V domains shown)
VH: EVQLLESGSGLVKPLQTLSLTCAVSGGSISSGGYSWSWIRQPPGKGLEWIGYIYPSGSTYYNPSLKSRVTMSIDRSKNQFSLRLTSVTAADTAVYYCARGDGNDFWSADSSHAFAIWGQGTMVTVSS
VL: EIVMTQSPGTLSLSPGERATLSCRASQIVGNSYLAWYQQKPGQAPRLLIYGASSRATGIPERFSGSGSGTDFTLTISRLEPEDFAVYHCQQYGSSPWTFGQGTKVEIK
notes: also called Ab 895; Antibody Number 895
B3: ADI-41737 (antibody, V domains shown)
VH: QVQLQESGPGLVKPSQTLSLTCTVSGGSMISGDFYWSWIRQPPGKGLEWIGYIYYSGTTYYSPSLKSRVSMSIDTSKSQFSLKLSSVTAADTAVYYCARKYSYGEKAYHYWGQGTLVTVSS
VL: B2 VL with M4L, I28T, S32N, E61D, P81S, Q90H, S94T, W97Q
notes: also called Ab 897; Antibody Number 897
B4: ADI-41768 (antibody, V domains shown)
VH: EVQLVESGGGLVQPGRSLRLSCAASGFTFGDYAMHWVRQAPGKGLEWVSGITWNSGRVVYADSVKGRFTISRDNAKNSLYLQINSLRAEDTALYYCVKGSCNGGICYSADYWGQGTLVTVSS
VL: NFMLTQPHSVSESPGKTVTISCTRSSGSIARNFVHWYQQRPGSSPTTVIYEDNQRPSGVPGRFSGSIDSSSNSASLTISGLRSEDEADYYCQSYDSDNWVFGGGTKLTVL
notes: also called Ab 900; Antibody Number 900
B5: ADI-41781 (antibody, V domains shown)
VH: QVQLVQSGAEVRKPGASVKVSCKAFGYTFTNFAISWVRQAPGQGLEWMGWIGPYNGDTDYEQKFQGRVTMTADTSSSTVFMELRSLRFDDTAVYYCARGKGSTIPLGYYIGMDVWGQGTTVTVSS
VL: ETTLTQSPSSLSASVGDRVTMTCRASQGISNYLAWYQQKPGKPPKLLIYLASSLQSGVPSRFSGSGSGTDFTLTISSLQPEDVATYYCQKYNSAPLTFGGGTKLEIK
B6: ADI-41677 (antibody, V domains shown)
VH: QVTLKESGPALVKPTQTLTLTCTFSGFSLSTSRMCVSWIRQPPGKALEWLARIDWDGDIYYSTSLRTRLTISKDTSKNQVVLTMTNMDPVDTATYYCARTSIYATGGYYLYYSDYWGQGTLVTVSS
VL: EIVMTQSPSSLSASVGDRVTITCRASQSIASYVNWFQQKPGKAPKLLIYAASNVHSGVPSRFSGSGSGTGFTLTISSLQPEDSAIYYCQQSYTTPWTFGQGTKLEIK
B7: ADI-41803 (antibody, V domains shown)
VH: RCTLQQWGAGRVKPSETLSLTCAVYRGPFSGYYWSWIRQPPGKGLEWIGEINLGETNPGGSTHYNPSLRSRLSMSIDTSKKQFSLRVNSVTAADTAVYYCTRGPVSRIYDTSGSYSLNYYGMDVWGQGTTVTVSS
VL: DIRMTQSPSSLSASVGDRVTITCRASQGIRNDLGWYQQKPGRAPERLIYPASSLQGGVPSRFIASGSGTEFTLTISNLQPEDFATYYCLQHNSYPRTFGQGTKVEIK
notes: also called Ab 912; Antibody Number 912
B8: ADI-41678 (antibody, V domains shown)
VH: EVQLVESGGGVVQPGGSLRLSCAASGFTFRTYGMHWVRQAPGKGLEWVAVISYDGSNKYYADSLMGRFTISRDNSKNTLYLQMNSLRAEDTAVYYCAKCFVPGSGGWYEYYFDYWGQGTLVTVSS
VL: QSVLTQPPSASGSPGQSVTISCTGTSSDVGGYNYVSWYQQHPGKAPKLMIYEVSKRPSGVPDRFSGSKSGNTASLTVSGLQAEDEADYYCSSYAGINNSVLFGGGTKLTVL
B9: ADI-41799 (antibody, V domains shown)
VH: QVQLVQSGAEVKKPGSSVKVSCQASGGTFSTHALSWVRQTPGHGLEWVGGVLPVFGATKYPRKFQGRVTITADKSTNTAYMELSSLRSDDTAVYYCARVVVHSTITTAKDFFSGVHDIWGQGTMVTVSS
VL: DIRMTQSPSTLSASVGDRVTITCRASQTVSSWLAWYQQKPGKAPKLLIYQASSLESGVPSRFSGSGSGTEFTLTISGLQPDDFATYFCQHYNSYSPVTFGGGTKVEIK
notes: also called Ab 910; Antibody Number 910
B10: ADI-41720 (antibody, V domains shown)
VH: QVQLVESGGGVVQPGRSLRLSCAASGFTFSSYGMHWVRQAPGKGLEWVSVIWFDGSKKYYEDSVKGRFTISRDNSKNTLYLEMNSLRAEDTAVYYCAREAPVRLGELSLYGYFDYWGQGTLVTVSS
VL: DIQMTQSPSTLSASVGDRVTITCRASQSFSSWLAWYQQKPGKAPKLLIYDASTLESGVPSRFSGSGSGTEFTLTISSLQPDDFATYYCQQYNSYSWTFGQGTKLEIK
notes: also called Ab 896; Antibody Number 896
B11: ADI-41778 (antibody, V domains shown)
VH: QVQLVESGGGQGQPGRSLRLSCAASGFTFDDYAMHWVRQVPGKGLEWVSGINWNSGYIGYADSVKGRFTISRDNAKNSLYLQMNSLRAEDTALYYCAKANNPIDSSGYNRGFDTWGQGTLVTVSS
VL: QSALTQPRSVSGSPGQSVTISCTGTSSDVGGYNYVSWYQQHPGKAPKLMIYDVNKRPSGVPDRFSGSKSDNTASLTISGLQAEDESDYFCCSYAGTYTWVFGGGTKVTVL
B12: ADI-41743 (antibody, V domains shown)
VH: EVQLVESGSGLVKPSQTLSLTCSVSGGSISSGGYSWSWIRQPPGKGLEWIGFIYNTGSTYSNPSLKSRLTLSVDRSNNRFSLKLNSVTAADTGVYFCARSGNVRQCDATGHCSTNYYFEYWGLGTLVTVSS
VL: EIVMTQSPATLSVSPGERATLSCRASQSVSSNLAWYQQKPGQAPRLLIYGASTRATGIPARFSGSGSGTEFTLTISSLQSEDFAVYYCQQHDDWPPLTFGGGTKVEIK
notes: also called Ab 898; Antibody Number 898
B13: ADI-41794 (antibody, V domains shown)
VH: EVQLQQWGAGLLKPSETLSLTCAVYGGSFSGYYWSWIRQPPGKGLEWIGEINHSGSTNYNPSLKSRVTISVDTSKNQFSLKLSSVTAADTAVYYCARGTRTIVYCDGDCYQPWAYHYYGMDVWGQGTTVTVSS
VL: QSVVTQEPSVSAAPGQKVTISCSGGSSNIGNNYVSWYQHLPGTAPKLLIYDNDKRPSGIPDRFSGSKSGTSATLGITGLQTGDEADYYCGTWDSSLSAVVFGGGTKLTVL
B14: ADI-14353 (antibody, V domains shown)
VH: QVQLVQSGAEVKKPGSSVKVSCKASGGTFSSYTISWVRQAPGQGLEWMGRIKPIIGIANNAQRFKGRVTITAEKSTGTAYMELSSLTSEDTAVYYCARGGYDYYGMDVWGQGTTVTVSS
VL: QSALTQPASVSGSPGQSITISCTGTSSDVGGYNYVSWHQQHPGKAPKLLIYDVSNRPSGVSNRFSGSKSGNTASLSISGLQAEDEADYYCSSFTSTSTPYVFGTGTQLTVL
notes: full-length IgG; also called Ab 21
B15: ADI-14389 (antibody, V domains shown)
VH: EVQLVESGGGLVKPGGSLRLSCAASGFTFINAWMAWVRQAPGKGPEWVGRIKSRADGGTTDYAAPVKGRFTISRDDSKNRLFLQMDSLKTDDTAVYFCTTGVRALRFYNGMDVWGQGTTVTVSS
VL: ETTLTQSPSSLSASIGDRVTITCRAGQSISSFLNWYQQKPGKAPKLLIYAASTLQSGVPSRFSGSKSGTDFTLTISSLQPEDFATYYCQQSYHTFTFGPGTKVEIK
notes: full-length IgG; also called Ab 56
B16: ADI-14342 (antibody, V domains shown)
VH: QVTLKESGPVLVKPTETLTLTCTVSGFSLSNAKMGVSWIRQPPGKALEWLAYISSNDEKSYSTSLKSRLTISKDTSKSQVVLTMTNMDPVDTATYYCARILLYDSSGYYLWYFDLWGRGTLVTVSS
VL: DIQVTQSPSSLSASVGDRVTITCRASQRITSYLNWYQHKPGKAPKLLIFAASSLHSGVPSTFSGSGSGTDFTLTISSLQPEDFATYYCQQSYSTPWTFGQGTKVEIK
notes: full-length IgG; also called Ab 10

In one assay the target is RSV postfusion F (postF), F ΔFP (Respiratory syncytial virus, UniProt P03420 26-513). The assay can be described thus: BLI, IgG on anti-human IgG sensor, 100 nM antigen. A general note: Biolayer interferometry detects binding as a change in optical thickness at a sensor tip.
What is called Kd is the equilibrium constant for the complex coming apart. Read a high Kd as lower affinity. B1: the Kd was determined as 0.289 nM.
B2 had a Kd of 0.843 nM.
In turn, B3 showed a Kd of 1.58 nM.
B4: binding was put at a Kd of 0.338 nM.
Molecule B5 gave a Kd of 0.653 nM.
B6 returned a Kd of 0.339 nM.
Consider B7, for which the affinity, expressed as Kd, was 0.711 nM.
B8 yielded a Kd of 1.17 nM.
As for B9, the Kd was found to be 1.1 nM.
B10 yielded a Kd of 1.17 nM.
The same measure, in the same setting: with B11 the figure was 0.504 nM; with B12, 1.27 nM; with B13, 3.01 nM.

In another assay the target is RSV prefusion F (preF), DS-Cav1 (Respiratory syncytial virus, UniProt P03420 26-513). The assay can be described thus: BLI, IgG on anti-human IgG sensor, 100 nM antigen.
For B1, the Kd turned out to be 1.93 nM.
Molecule B2 displayed a Kd of 4.2 nM.
On the same count and under the same terms, with B3 the figure was 3.58 nM; with B4, 1.61 nM; with B5, 3.46 nM.
For B6, binding was put at a Kd of 1.28 nM.
Take B7: the Kd amounted to 1.99 nM.
The molecule B8 had a Kd of 2.92 nM.
With B9, the Kd came to 3.28 nM.
B10 returned an equilibrium dissociation constant (Kd) of 22 nM.
The molecule B11 displayed a Kd of 2.75 nM.
Molecule B12 gave a Kd of 5.45 nM.
Consider B13, for which the affinity, expressed as Kd, was 3.31 nM.

Another assay has as its target T1, RSV prefusion F (preF), subtype B (respiratory syncytial virus subtype B).
T1 construct: also called Prefusion subtype B
The assay can be described thus: BLI, IgG.
Molecule B14 yielded a Kd of 12.6 nM.
Still for that read-out and setting: under B15 stands 81.5 nM.
Regarding B16, the Kd was determined as 26.1 nM.

The target in a further assay is T2, RSV postfusion F (postF), subtype A (respiratory syncytial virus subtype A, UniProt P03420 26-513).
T2 construct: also called Postfusion subtype A; F deltaFP
The assay can be described thus: BLI, IgG.
Molecule B14 came in with a Kd of 0.26 nM.
Consider B15, for which the Kd stood at 22.9 nM.
The molecule B16 came in with a Kd of 0.495 nM.

Another assay deals with RSV F on RSV subtype A virus (mKate-RSV A2) (respiratory syncytial virus A2, UniProt P03420 26-574). The assay can be described thus: cell-based or functional assay.
As to B16, the “Neut IC50 subtype A” value worked out at 1.75 µg/mL.

The target in the next assay is RSV F on RSV subtype B virus (mKate-RSV B 18537) (respiratory syncytial virus B 18537, UniProt P13843 26-574). The assay can be described thus: cell-based or functional assay.
For B14, the “Neut IC50 subtype B” value turned out to be 14.6 µg/mL.
Still for that read-out and setting: under B16 stands 8.27 µg/mL.

Another assay concerns the target RSV F on RSV-A2 virus (Respiratory syncytial virus, RSV-A2, UniProt P03420 26-574). The assay can be described thus: cell-based or functional assay.
B1: the “Neutralization IC50 (RSV subtype A)” value was more than 25 µg/mL.
Regarding B2, the “Neutralization IC50 (RSV subtype A)” value was more than 25 µg/mL.
As for B3, the “Neutralization IC50 (RSV subtype A)” value was more than 25 µg/mL.
With B4, the “Neutralization IC50 (RSV subtype A)” value was more than 25 µg/mL.
On the same count and under the same terms, under B5 stands more than 25 µg/mL.
As to B6, the “Neutralization IC50 (RSV subtype A)” value is more than 25 µg/mL.
With B7, the “Neutralization IC50 (RSV subtype A)” value is more than 25 µg/mL.
Turning to B8, the “Neutralization IC50 (RSV subtype A)” value is more than 25 µg/mL.
Same read-out and setting: under B9 stands more than 25 µg/mL.
Consider B10, for which the “Neutralization IC50 (RSV subtype A)” value is more than 25 µg/mL.
For B11, the “Neutralization IC50 (RSV subtype A)” value was more than 25 µg/mL.
As to B12, the “Neutralization IC50 (RSV subtype A)” value is more than 25 µg/mL.
In the case of B13, the “Neutralization IC50 (RSV subtype A)” value was more than 25 µg/mL.
